Where no end group is shown, it is not given here.
Molecular target: Arabidopsis thaliana O-acetylserine sulfhydrylase (OASS) (Arabidopsis thaliana, UniProt P47998 3-322)
Assay: fluorescence polarisation

Sequence of Arabidopsis thaliana O-acetylserine sulfhydrylase (OASS) (P47998 3-322): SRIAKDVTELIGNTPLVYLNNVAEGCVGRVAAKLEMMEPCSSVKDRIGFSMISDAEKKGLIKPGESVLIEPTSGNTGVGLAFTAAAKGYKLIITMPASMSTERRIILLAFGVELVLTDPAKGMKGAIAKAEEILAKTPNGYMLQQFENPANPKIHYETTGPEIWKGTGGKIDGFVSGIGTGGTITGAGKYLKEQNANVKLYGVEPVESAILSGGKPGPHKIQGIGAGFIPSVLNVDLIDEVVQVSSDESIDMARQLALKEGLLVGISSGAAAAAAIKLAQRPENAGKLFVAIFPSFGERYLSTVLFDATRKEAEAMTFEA

- binding result: binds
B1: FITC-labeled SAT-derived peptide YLTEWSDYVI (FITC-SATp) (peptide)
peptide: YLTEWSDYVI
modifications: also: FITC conjugate, position not given here
